Source: the supplement of paper PMC10567573

B1: PKD2L1 (parent)
chain: TLARCAKDILGFAVMFFIVFFAYA
B2: KCNAB2 (parent)
chain: YVDVVFANRPDPNTPMEETVRAMT

Variants of: B1
Test: protein stability index of a GFP-peptide fusion (GPS, HEK-293T) (PSI 1-6); higher = more stable
Conditions: c terminus: a fixed tail appended
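Also: lentivirally expressed fusions sorted by FACS into six bins by GFP to DsRed ratio, PSI derived from sequencing read proportions per bin multiplied by bin number.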

Variant | protein stability index
TLARCATDILGFAVMFFIVFFAYA [K7T] | 2.83
TLARCAIDILGFAVMFFIVFFAYA [K7I] | 2.36
TLAGCAKDILGFAVMFFIVFFAYA [R4G] | 3.84
TLAICAKDILGFAVMFFIVFFAYA [R4I] | 2.64
TLAQCAKDILGFAVMFFIVFFAYA [R4Q] | 2.37
TLAFCAKDILGFAVMFFIVFFAYA [R4F] | 2.68
TLALCAKDILGFAVMFFIVFFAYA [R4L] | 3.07
TLACCAKDILGFAVMFFIVFFAYA [R4C] | 2.28
TLAVCAKDILGFAVMFFIVFFAYA [R4V] | 4.36
TLAPCAKDILGFAVMFFIVFFAYA [R4P] | 2.65
TLAWCAKDILGFAVMFFIVFFAYA [R4W] | 3.31
TLANCAKDILGFAVMFFIVFFAYA [R4N] | 2.79
TLAKCAKDILGFAVMFFIVFFAYA [R4K] | 2.6
TLAACAKDILGFAVMFFIVFFAYA [R4A] | 2.72
TLAYCAKDILGFAVMFFIVFFAYA [R4Y] | 3.28
TLARCAKEILGFAVMFFIVFFAYA [D8E] | 2.21
TLARCAKAILGFAVMFFIVFFAYA [D8A] | 2.77
TLARCAKHILGFAVMFFIVFFAYA [D8H] | 2.66
TLARCAKIILGFAVMFFIVFFAYA [D8I] | 2.56
TLARCAKGILGFAVMFFIVFFAYA [D8G] | 2.75
TLARCAKCILGFAVMFFIVFFAYA [D8C] | 2.56
TLARCAKFILGFAVMFFIVFFAYA [D8F] | 2.33

Variants of: B2
Test: as above
Conditions: c terminus: a fixed tail appended

Variant | protein stability index
YVDVVFANRPDPNTPMEETVGAMT [R21G] | 2.37
YVDVVFANRPDPNTPMEETVIAMT [R21I] | 2.15
YVDVVFANRPDPNTPMEETVWAMT [R21W] | 2.27
YVDVVFANRPDPNTPMEETVVAMT [R21V] | 1.58
YVDVVFANRPDPNTPMEETVNAMT [R21N] | 2.33
YVDVVFANRPDPNTPMEETVSAMT [R21S] | 1.77
YVDVVFANRPDPNTPMEETVTAMT [R21T] | 1.96
YVDVVFANRPDPNTPMEETVYAMT [R21Y] | 1.87
YVDVVFANRPDPNTPMEETVQAMT [R21Q] | 2.18
YVDVVFANRPDPNTPMEETVMAMT [R21M] | 1.56
YVDVVFANRPDPNTPMEETVKAMT [R21K] | 2.35
YVDVVFANRPDPNTPMEETVPAMT [R21P] | 2.1
YVDVVFANRPDPNTPMEETVFAMT [R21F] | 2.78
YVDVVFANRPDPNTPMEETVLAMT [R21L] | 2.64
YVDVVFANRPDPNTPMEETVEAMT [R21E] | 2.27
YVDVVFANRPDPNTPMEETVDAMT [R21D] | 1.56
YVDVVFANRPDPNTPMEETVHAMT [R21H] | 2.22
YVDVVFANRPDPNTPMEETVRAAT [M23A] | 2.16
YVDVVFANRPDPNTPMEETVRAPT [M23P] | 2.14
YVDVVFANRPDPNTPMEETVRART [M23R] | 2.81
YVDVVFANRPDPNTPMEETVRAST [M23S] | 1.58
YVDVVFANRPDPNTPMEETVRAGT [M23G] | 1.56
YVDVVFANRPDPNTPMEETVRACT [M23C] | 2.04
YVDVVFANRPDPNTPMEETVRADT [M23D] | 1.61

Variant | protein stability index
YVDVVFANRPDPNTPMEETVRAIT [M23I] | 1.82
YVDVVFANRPDPNTPMEETVRAFT [M23F] | 2.03
YVDVVFANRPDPNTPMEETVRALT [M23L] | 2.57
YVDVVFANRPDPNTPMEETVRAET [M23E] | 1.86
YVDVVFANRPDPNTPMEETVRAVT [M23V] | 1.78
YVDVVFANRPDPNTPMEETVRAKT [M23K] | 1.82
YVDVVFANRPDPNTPMEETVRAWT [M23W] | 2.06
YVDVVFANRPDPNTPMEETVRAYT [M23Y] | 2.13
YVDVVFANRPDPNTPMEETVRANT [M23N] | 1.8
YVDVVFANRPDPNTPMEETVRAHT [M23H] | 1.66
YVDVVFANRPDPNTPMEETVRAQT [M23Q] | 1.41
YVDVVFANRPDPNTPMEETVRAMK [T24K] | 1.82
YVDVVFANRPDPNTPMEETVRAMR [T24R] | 1.78
YVDVVFANRPDPNTPMEETVRAMF [T24F] | 3.03
YVDVVFANRPDPNTPMEETVRAMM [T24M] | 2.18
YVDVVFANRPDPNTPMEETVRAMS [T24S] | 1.88
YVDVVFANRPDPNTPMEETVRAMN [T24N] | 1.5
YVDVVFANRPDPNTPMEETVRAMY [T24Y] | 2.46
YVDVVFANRPDPNTPMEETVRAMV [T24V] | 1.47
YVDVVFANRPDPNTPMEETVRAMW [T24W] | 2.72
YVDVVFANRPDPNTPMEETVRAMQ [T24Q] | 2.09
YVDVVFANRPDPNTPMEETVRAMH [T24H] | 1.74
YVDVVFANRPDPNTPMEETVRAML [T24L] | 1.8
YVDVVFANRPDPNTPMEETVRAMG [T24G] | 1.35

Variant | protein stability index
YVDVVFANRPDPNTPMEETVRAMP [T24P] | 2.24
YVDVVFANRPDPNTPMEETVRAMC [T24C] | 1.98
YVDVVFANRPDPNTPMEETVRAMD [T24D] | 1.46
YVDVVFANRPDPNTPMEETVRAME [T24E] | 1.86
YVDVVFANRPDPNTPMEETVRAMI [T24I] | 1.78
YVDVVFANRPDPNTPMEETVRTMT [A22T] | 1.33
YVDVVFANRPDPNTPMEETVRMMT [A22M] | 2.32
YVDVVFANRPDPNTPMEETVRRMT [A22R] | 1.89
YVDVVFANRPDPNTPMEETVRKMT [A22K] | 2.08
YVDVVFANRPDPNTPMEETVRWMT [A22W] | 2.49
YVDVVFANRPDPNTPMEETVRSMT [A22S] | 1.76
YVDVVFANRPDPNTPMEETVRYMT [A22Y] | 1.73
YVDVVFANRPDPNTPMEETVRNMT [A22N] | 2.13
YVDVVFANRPDPNTPMEETVRQMT [A22Q] | 1.85
YVDVVFANRPDPNTPMEETVRHMT [A22H] | 2.27
YVDVVFANRPDPNTPMEETVRFMT [A22F] | 2.28
YVDVVFANRPDPNTPMEETVRVMT [A22V] | 2.29
YVDVVFANRPDPNTPMEETVRGMT [A22G] | 1.74
YVDVVFANRPDPNTPMEETVRDMT [A22D] | 2.67
YVDVVFANRPDPNTPMEETVRLMT [A22L] | 1.98
YVDVVFANRPDPNTPMEETVRIMT [A22I] | 1.72
YVDVVFANRPDPNTPMEETVRPMT [A22P] | 1.69
YVDVVFANRPDPNTPMEETVRCMT [A22C] | 2.26
YVDVVFANRPDPNTPMEETVREMT [A22E] | 1.6
